In US20110046043A1 (NEW YORK UNIVERSITY, published 2011):
*1 amine or outer side, *2 acyl side, *3 side chain or, on linkers, in order; H or OH if unused. Where no end group is shown, it is not given here. [ ]: non-standard residue; d: D form. Suc = O=C(CCC(=O)[*:2])[*:1]

What was measured:
[1] = biological target: T1, IZN17 (peptide 11, AcIKKEIEAIKKEQEAIKKKIEAIEKLLQLTVWGIKQLQARIL-NH2) (N-terminal acetyl (Ac); C-terminal amide (NH2)); assay: fluorescence polarization competition, displacement of peptide 12 from IZN17; upper limit of the assay
T1 construct: also called peptide IZN17; 1ZN17
T1 chain: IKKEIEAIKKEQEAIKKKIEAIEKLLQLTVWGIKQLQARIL

[2] = biological target: HIV-1 HXB2 envelope (gp41) expressed on CHO[HIVe] (clone 7d2) cells (HIV-1 (HXB2), UniProt P04578 512-856); assay: cell-based or functional assay
Sequence of HIV-1 HXB2 envelope (gp41) expressed on CHO[HIVe] (clone 7d2) cells (P04578 512-856): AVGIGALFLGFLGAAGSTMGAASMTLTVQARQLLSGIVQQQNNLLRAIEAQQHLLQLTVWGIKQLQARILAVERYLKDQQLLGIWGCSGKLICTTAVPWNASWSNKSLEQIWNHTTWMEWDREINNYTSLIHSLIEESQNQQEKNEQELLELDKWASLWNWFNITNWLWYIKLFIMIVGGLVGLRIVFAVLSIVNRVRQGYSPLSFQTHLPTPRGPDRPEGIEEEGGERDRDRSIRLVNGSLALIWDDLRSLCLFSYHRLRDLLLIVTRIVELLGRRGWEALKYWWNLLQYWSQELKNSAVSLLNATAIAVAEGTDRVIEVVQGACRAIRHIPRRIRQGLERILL

[3] = biological target: T1, IZN17 (peptide 11, …); assay: fluorescence polarization competition, displacement of peptide 12 from IZN17; compared with peptide 1
[4] = biological target: T1, IZN17 (peptide 11, …); assay: fluorescence polarization competitive binding assay with peptide 12 as probe
[5] = biological target: T1, IZN17 (peptide 11, …); assay: fluorescence polarization competition, displacement of peptide 12 from IZN17
[6] = biological target: T1, IZN17 (peptide 11, …); assay: fluorescence polarization, direct saturation binding of fluorescein-labeled peptide 12 to IZN17, PBS, 25° C.
[7] = biological target: T1, IZN17 (peptide 11, …); assay: fluorescence polarization competition, displacement of peptide 12 from IZN17; value inexact because the peptide aggregates

B1: HBS α-helix 9 (XMTWEEWDKKIEEYTKKI) (peptide)
peptide: XMTWEEWDKKIEEYTKKI
modifications: X at position 1 is a pentenoic acid residue; internally-constrained α-helical region (hydrogen bond surrogate, carbon-carbon bond by ring-closing metathesis) spanning residues 1 through 4 of SEQ ID NO: 9
notes: also called peptide 9
[1]
  Kd: < 5 µM
[2]
  inhibition of gp41-mediated cell-cell fusion (syncytium formation, β-galactosidase activity), EC50: 43 µM

B2: HBS α-helix 2 (XMTWMEWDREINNYT) (peptide)
peptide: [Pentenoic acid]MTWMEWDREINNYT
modifications: staple (positions not given here); not fully specified (C-terminus, bridges)
notes: HBS-constrained form of peptide 1; made on Rink amide resin; also called peptide 2
[2]
  inhibition of gp41-mediated cell-cell fusion (syncytium formation, β-galactosidase activity): > 200
[3]
  binding result: binds

B3: HBS α-helix 3 (XWAAWDKKI) (peptide)
peptide: XWAAWDKKI
modifications: X at position 1 is a pentenoic acid residue; N-terminal hydrogen bond surrogate (carbon-carbon bond by ring-closing metathesis in place of an i and i+4 hydrogen bond)
notes: Shortest designed peptide with the Trp/Trp/Ile motif; also called peptide 3
[4]
  binding result: no binding
[2]
  inhibition of gp41-mediated cell-cell fusion (syncytium formation, β-galactosidase activity): > 200

B4: HBS α-helix 4 (XAAAWEEWDKKI) (peptide)
peptide: XAAAWEEWDKKI
modifications: X at position 1 is a pentenoic acid residue; N-terminal hydrogen bond surrogate (carbon-carbon bond by ring-closing metathesis in place of an i and i+4 hydrogen bond)
notes: Trp/Trp/Ile motif lies outside of the constraint; also called peptide 4
[4]
  binding result: no binding
[2]
  inhibition of gp41-mediated cell-cell fusion (syncytium formation, β-galactosidase activity): > 200

B5: HBS α-helix 5 (XWAAWDREINNYT) (peptide)
peptide: XWAAWDREINNYT
modifications: X at position 1 is a pentenoic acid residue; N-terminal hydrogen bond surrogate (carbon-carbon bond by ring-closing metathesis in place of an i and i+4 hydrogen bond)
notes: Similar to 1 and 2 but missing N-terminal Met-626 and Thr-627; also called peptide 5
[4]
  binding result: no binding
[2]
  inhibition of gp41-mediated cell-cell fusion (syncytium formation, β-galactosidase activity): > 200

B6: HBS α-helix 6 (XMTWEEWDKKIEEYT) (peptide)
peptide: XMTWEEWDKKIEEYT
modifications: X at position 1 is a pentenoic acid residue; N-terminal hydrogen bond surrogate (carbon-carbon bond by ring-closing metathesis in place of an i and i+4 hydrogen bond)
notes: also called peptide 6
[2]
  inhibition of gp41-mediated cell-cell fusion (syncytium formation, β-galactosidase activity): > 200
[5]
  binding result: binds

B7: HBS α-helix 7 (XEMAWEEWDKKIEEYT) (peptide)
peptide: XEMAWEEWDKKIEEYT
modifications: X at position 1 is a pentenoic acid residue; N-terminal hydrogen bond surrogate (carbon-carbon bond by ring-closing metathesis in place of an i and i+4 hydrogen bond)
notes: Thr-627 replaced with alanine; a glutamic acid added at the N-terminus; also called peptide 7
[2]
  inhibition of gp41-mediated cell-cell fusion (syncytium formation, β-galactosidase activity): > 200
[5]
  fold lower affinity than HBS α-helix 6: 20 fold

B8: HBS α-helix 8 (XNEMTWEEWDKKIEEYT) (peptide)
peptide: XNEMTWEEWDKKIEEYT
modifications: X at position 1 is a pentenoic acid residue; N-terminal hydrogen bond surrogate (carbon-carbon bond by ring-closing metathesis in place of an i and i+4 hydrogen bond)
notes: also called peptide 8
[1]
  Kd: < 5 µM
[2]
  inhibition of gp41-mediated cell-cell fusion (syncytium formation, β-galactosidase activity): > 200

B9: Fluorescein-labeled peptide 12 (suc-MTWMEWDREINNYTC^Flu) (peptide)
peptide: Suc-MTWMEWDREINNYTC(fluorescein)-NH2
notes: also called fluorescent probe 12; fluorescein-labeled C-peptide derivative
[6]
  Kd: 24 µM

B10: Peptide 1 (AcMTWMEWDREINNYT-NH2), 14-residue C-peptide derived from gp41 (peptide)
peptide: Ac-MTWMEWDREINNYT-NH2
notes: Unconstrained parent peptide; also called unconstrained C-peptide
[7]
  Kd: 37 µM

B11: Peptide 10 (AcMTWEEWDKKIEEYTKKI-NH2) (peptide)
peptide: Ac-MTWEEWDKKIEEYTKKI-NH2
notes: Unconstrained counterpart of HBS α-helix 9; also called unconstrained peptide 10
[5]
  binding result: binds
